Article PMC2756588

What was measured:
Assay in all cases: SPOT array
Abp1, P15891 = molecular target: T1, Abp1, P15891; conditions: median of control spots 935
T1 sequence (P15891 535-592, looked up): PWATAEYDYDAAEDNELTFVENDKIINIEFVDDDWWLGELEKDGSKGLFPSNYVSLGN

Bbc1, P47068 = molecular target: T2, Bbc1, P47068; conditions: median of control spots 796
T2 sequence (P47068 1-78, looked up): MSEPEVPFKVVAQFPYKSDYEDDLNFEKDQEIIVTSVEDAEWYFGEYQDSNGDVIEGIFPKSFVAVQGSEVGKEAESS

Bem1-1, P29366 = conditions: median of control spots 4282
Bem1-2, P29366 = conditions: median of control spots 4347
Boi1, P38041 = molecular target: T3, Boi1, P38041; conditions: median of control spots 1162
T3 sequence (P38041 1-86, looked up): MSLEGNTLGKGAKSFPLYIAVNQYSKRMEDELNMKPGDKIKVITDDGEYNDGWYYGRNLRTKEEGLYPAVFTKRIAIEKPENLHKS

Boi2, P39969 = molecular target: T4, Boi2, P39969; conditions: median of control spots 1161
T4 sequence (P39969 32-116, looked up): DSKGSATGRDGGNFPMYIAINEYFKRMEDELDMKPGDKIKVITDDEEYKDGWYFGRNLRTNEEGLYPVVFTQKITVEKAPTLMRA

Bud14, P27637 = molecular target: T5, Bud14, P27637; conditions: median of control spots 956
T5 sequence (P27637 247-328, looked up): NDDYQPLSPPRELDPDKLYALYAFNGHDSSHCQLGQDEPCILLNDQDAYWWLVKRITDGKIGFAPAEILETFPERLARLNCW

Bzz1-1, P38822 = molecular target: T6, Bzz1-1, P38822; conditions: median of control spots 4446
T6 sequence (P38822 478-572, looked up): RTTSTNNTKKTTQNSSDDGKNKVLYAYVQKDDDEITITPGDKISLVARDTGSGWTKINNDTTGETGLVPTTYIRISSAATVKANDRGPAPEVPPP

Bzz1-2, P38822 = molecular target: T7, Bzz1-2, P38822; conditions: median of control spots 4538
T7 sequence (P38822 568-633, looked up): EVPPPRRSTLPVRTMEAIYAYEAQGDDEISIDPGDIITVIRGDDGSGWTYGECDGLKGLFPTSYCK

Cdc25, P04821 = molecular target: T8, Cdc25, P04821; conditions: median of control spots 969
T8 sequence (P04821 50-136, looked up): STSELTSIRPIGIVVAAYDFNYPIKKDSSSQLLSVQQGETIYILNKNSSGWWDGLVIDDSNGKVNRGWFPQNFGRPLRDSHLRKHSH

Cyk3, Q07533 = molecular target: T9, Cyk3, Q07533; conditions: median of control spots 1451
T9 sequence (Q07533 1-83, looked up): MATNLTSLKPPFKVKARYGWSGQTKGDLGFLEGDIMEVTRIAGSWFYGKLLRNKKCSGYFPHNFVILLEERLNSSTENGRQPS

Fus1, P11710 = molecular target: T10, Fus1, P11710; conditions: median of control spots 1200
T10 sequence (P11710 432-512, looked up): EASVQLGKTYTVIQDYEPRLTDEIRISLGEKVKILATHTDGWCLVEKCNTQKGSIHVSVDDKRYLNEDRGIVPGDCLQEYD

GST = conditions: median of control spots 978
Hof1, Q05080 = molecular target: T11, Hof1, Q05080; conditions: median of control spots 4086
T11 sequence (Q05080 590-669, looked up): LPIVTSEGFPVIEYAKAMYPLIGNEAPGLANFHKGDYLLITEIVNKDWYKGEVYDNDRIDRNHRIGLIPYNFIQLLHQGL

Hse1, P38753 = molecular target: T12, Hse1, P38753; conditions: median of control spots 1727
T12 sequence (P38753 208-285, looked up): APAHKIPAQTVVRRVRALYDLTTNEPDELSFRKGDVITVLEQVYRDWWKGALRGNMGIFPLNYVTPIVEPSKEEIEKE

Lsb1, P53281 = molecular target: T13, Lsb1, P53281; conditions: median of control spots 388
T13 sequence (P53281 45-122, looked up): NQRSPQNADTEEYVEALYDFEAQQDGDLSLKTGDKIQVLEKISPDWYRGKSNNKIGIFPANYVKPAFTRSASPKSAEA

Lsb3, P43603 = molecular target: T14, Lsb3, P43603; conditions: median of control spots 406
T14 sequence (P43603 385-451, looked up): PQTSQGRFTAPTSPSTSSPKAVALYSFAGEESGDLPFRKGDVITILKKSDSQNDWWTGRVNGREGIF

Lsb4, P32793 = molecular target: T15, Lsb4, P32793; conditions: median of control spots 397
T15 sequence (P32793 402-468, looked up): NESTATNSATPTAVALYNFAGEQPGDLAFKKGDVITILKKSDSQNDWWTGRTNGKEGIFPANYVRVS

Myo3, P36006 = conditions: median of control spots 468
Myo5, Q04439 = molecular target: T16, Myo5, Q04439; conditions: median of control spots 471
T16 sequence (Q04439 1072-1160, looked up): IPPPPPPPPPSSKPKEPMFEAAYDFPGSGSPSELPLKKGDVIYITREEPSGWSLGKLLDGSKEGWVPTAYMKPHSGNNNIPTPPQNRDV

Nbp2, Q12163 = molecular target: T17, Nbp2, Q12163; conditions: median of control spots 357
T17 sequence (Q12163 103-180, looked up): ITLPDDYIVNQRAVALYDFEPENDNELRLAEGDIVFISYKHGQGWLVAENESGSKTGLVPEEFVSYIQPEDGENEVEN

Pex13, P80667 = molecular target: T18, Pex13, P80667; conditions: median of control spots 1341
T18 sequence (P80667 295-386, looked up): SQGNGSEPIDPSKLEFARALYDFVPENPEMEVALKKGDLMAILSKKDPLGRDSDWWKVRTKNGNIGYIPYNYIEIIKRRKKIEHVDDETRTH

Pin3, Q06449 = molecular target: T19, Pin3, Q06449; conditions: median of control spots 2171
T19 sequence (Q06449 53-122, looked up): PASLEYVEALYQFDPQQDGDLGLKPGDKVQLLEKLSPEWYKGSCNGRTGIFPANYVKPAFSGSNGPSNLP

Rvs167, P39743 = conditions: median of control spots 2707
Sho1, P40073 = conditions: median of control spots 1148
Sla1-2, P32790 = molecular target: T20, Sla1-2, P32790; conditions: median of control spots 712
T20 sequence (P32790 60-140, looked up): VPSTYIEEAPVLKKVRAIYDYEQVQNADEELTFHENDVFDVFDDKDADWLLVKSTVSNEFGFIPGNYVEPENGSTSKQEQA

Sla1-3, P32790 = molecular target: T21, Sla1-3, P32790; conditions: median of control spots 5475
T21 sequence (P32790 344-424, looked up): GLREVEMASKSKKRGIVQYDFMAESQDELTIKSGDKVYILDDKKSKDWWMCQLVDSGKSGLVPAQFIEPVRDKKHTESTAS

Chain of Bem1-2, P29366 (P29366 139-227): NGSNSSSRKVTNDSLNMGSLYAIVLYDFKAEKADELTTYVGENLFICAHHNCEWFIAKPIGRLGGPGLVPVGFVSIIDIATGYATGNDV
Chain of Sho1, P40073 (P40073 287-367): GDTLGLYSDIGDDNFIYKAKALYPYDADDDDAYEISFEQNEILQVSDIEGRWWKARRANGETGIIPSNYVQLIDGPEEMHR
Chain of Bem1-1, P29366 (P29366 55-141): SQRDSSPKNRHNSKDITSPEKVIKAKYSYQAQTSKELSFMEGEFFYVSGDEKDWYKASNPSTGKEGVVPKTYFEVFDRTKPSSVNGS
Chain of Rvs167, P39743 (P39743 419-482): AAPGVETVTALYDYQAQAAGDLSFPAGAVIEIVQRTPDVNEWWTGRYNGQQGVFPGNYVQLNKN

Binder | SPOT intensity (Abp1, P15891) | SPOT intensity (Bbc1, P47068) | SPOT intensity (Bem1-1, P29366) | SPOT intensity (Bem1-2, P29366) | SPOT intensity (Boi1, P38041) | SPOT intensity (Boi2, P39969) | SPOT intensity (Bud14, P27637) | SPOT intensity (Bzz1-1, P38822) | SPOT intensity (Bzz1-2, P38822) | SPOT intensity (Cdc25, P04821) | SPOT intensity (Cyk3, Q07533) | SPOT intensity (Fus1, P11710) | SPOT intensity (GST) | SPOT intensity (Hof1, Q05080) | SPOT intensity (Hse1, P38753) | SPOT intensity (Lsb1, P53281) | SPOT intensity (Lsb3, P43603) | SPOT intensity (Lsb4, P32793) | SPOT intensity (Myo3, P36006) | SPOT intensity (Myo5, Q04439) | also measured
PKMLPIPSKPTLFDL | 173 | 0 | 0 | 0 | 0 | 0 | 0 | 0 | 0 | 0 | 0 | 0 | 1 | 0 | 0 | 2 | 15 | 42 | 36 | 52 | SPOT intensity (Nbp2, Q12163): 19; SPOT intensity (Pex13, P80667): 52; SPOT intensity (Pin3, Q06449): 69; SPOT intensity (Rvs167, P39743): 0; SPOT intensity (Sho1, P40073): 164; SPOT intensity (Sla1-2, P32790): 3; SPOT intensity (Sla1-3, P32790): 0
VFQFQMPTTPISTKM | 32 | 0 | 0 | 5 | 0 | 0 | 0 | 1 | 0 | 0 | 0 | 0 | 0 | 0 | 0 | 1 | 14 | 39 | 32 | 74 | SPOT intensity (Nbp2, Q12163): 3; SPOT intensity (Pex13, P80667): 219; SPOT intensity (Pin3, Q06449): 125; SPOT intensity (Rvs167, P39743): 0; SPOT intensity (Sho1, P40073): 46; SPOT intensity (Sla1-2, P32790): 7; SPOT intensity (Sla1-3, P32790): 0
NSMRPPLLIPAATTK | 87 | 0 | 5 | 6 | 0 | 0 | 13 | 0 | 0 | 37 | 0 | 0 | 1 | 2 | 5 | 387 | 25 | 87 | 40 | 65 | SPOT intensity (Nbp2, Q12163): 9; SPOT intensity (Pex13, P80667): 47; SPOT intensity (Pin3, Q06449): 40; SPOT intensity (Rvs167, P39743): 0; SPOT intensity (Sho1, P40073): 39; SPOT intensity (Sla1-2, P32790): 6; SPOT intensity (Sla1-3, P32790): 0
TSIEIPKRSPLRFTS | 60 | 12 | 0 | 0 | 3040 | 2740 | 5 | 0 | 0 | 13 | 0 | 0 | 0 | 0 | 0 | 0 | 5 | 8 | 4 | 2 | SPOT intensity (Nbp2, Q12163): 0; SPOT intensity (Pex13, P80667): 19; SPOT intensity (Pin3, Q06449): 10; SPOT intensity (Rvs167, P39743): 0; SPOT intensity (Sho1, P40073): 8; SPOT intensity (Sla1-2, P32790): 792; SPOT intensity (Sla1-3, P32790): 0
PSTMDFPKLPSFQNS | 99 | 0 | 0 | 8 | 0 | 0 | 1 | 0 | 0 | 0 | 2 | 0 | 0 | 307 | 0 | 44 | 21 | 67 | 51 | 77 | SPOT intensity (Nbp2, Q12163): 57; SPOT intensity (Pex13, P80667): 35; SPOT intensity (Pin3, Q06449): 54; SPOT intensity (Rvs167, P39743): 2; SPOT intensity (Sho1, P40073): 25; SPOT intensity (Sla1-2, P32790): 7; SPOT intensity (Sla1-3, P32790): 0
QTMRQAPKRPDADVA | 81 | 90 | 1 | 65 | 0 | 0 | 0 | 0 | 28 | 0 | 0 | 0 | 1 | 0 | 1 | 211 | 60 | 115 | 44 | 103 | SPOT intensity (Nbp2, Q12163): 989; SPOT intensity (Pex13, P80667): 73; SPOT intensity (Pin3, Q06449): 61; SPOT intensity (Rvs167, P39743): 10; SPOT intensity (Sho1, P40073): 21; SPOT intensity (Sla1-2, P32790): 19; SPOT intensity (Sla1-3, P32790): 42
